pKd: −log10 of the molar value.
System: His-ArgR2 (Lactiplantibacillus plantarum AR195)
Experiment: BLI
Conditions: ArgR2 256-4097 nM; BLI: 10 mM HEPES pH 8.0, 2 mM MgCl2, 0.1 mM EDTA, 200 mM KCl, 1 per mille (w/v) BSA and 2 per mille (v/v) Tween 20 in protein buffer; temperature not stated. …

**Q.** With cla promoter probe as the substance, how does the pKd read?
**A.** > 12.00
